For this assay, the target named is cynomolgus αV (HEK-293 cells transfected with cynomolgus αV alone) (cynomolgus). In words: FACS, HEK-293 transfected with cynomolgus αV. Background: Flow cytometry measures light scatter and fluorescence of single cells or particles in a stream.
cynomolgus αV (HEK-293 cells transfected with cynomolgus αV alone) (cynomolgus), sequence (chain, as listed by the source): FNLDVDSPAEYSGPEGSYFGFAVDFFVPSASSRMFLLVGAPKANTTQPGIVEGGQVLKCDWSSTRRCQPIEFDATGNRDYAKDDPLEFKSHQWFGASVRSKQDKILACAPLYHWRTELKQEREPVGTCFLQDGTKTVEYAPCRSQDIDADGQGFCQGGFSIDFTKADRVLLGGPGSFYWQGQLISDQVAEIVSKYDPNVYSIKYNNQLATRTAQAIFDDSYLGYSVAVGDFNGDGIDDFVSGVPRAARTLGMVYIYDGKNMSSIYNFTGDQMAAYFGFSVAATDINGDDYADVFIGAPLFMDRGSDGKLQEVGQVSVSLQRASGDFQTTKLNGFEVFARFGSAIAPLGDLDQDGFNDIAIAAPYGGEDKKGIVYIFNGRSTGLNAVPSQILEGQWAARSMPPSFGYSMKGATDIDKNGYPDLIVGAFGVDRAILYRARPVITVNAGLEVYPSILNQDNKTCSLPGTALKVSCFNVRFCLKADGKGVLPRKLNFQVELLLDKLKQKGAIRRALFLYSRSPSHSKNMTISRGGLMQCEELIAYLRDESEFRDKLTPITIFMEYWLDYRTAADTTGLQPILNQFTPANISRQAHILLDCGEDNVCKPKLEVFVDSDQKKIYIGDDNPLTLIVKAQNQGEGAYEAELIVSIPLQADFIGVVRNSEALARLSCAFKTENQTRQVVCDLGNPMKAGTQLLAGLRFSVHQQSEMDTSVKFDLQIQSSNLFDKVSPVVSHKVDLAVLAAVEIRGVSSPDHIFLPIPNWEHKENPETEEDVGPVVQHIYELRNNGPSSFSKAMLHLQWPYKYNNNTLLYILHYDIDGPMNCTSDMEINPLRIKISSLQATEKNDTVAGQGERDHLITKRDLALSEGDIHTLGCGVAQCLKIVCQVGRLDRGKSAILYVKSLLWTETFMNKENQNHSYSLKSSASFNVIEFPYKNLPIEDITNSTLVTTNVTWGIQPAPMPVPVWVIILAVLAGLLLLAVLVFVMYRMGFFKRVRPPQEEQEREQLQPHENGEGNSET

B1: sc 133 (antibody, V domains shown)
VH: QVQLVQSGAEVKKPGASVKVSCKASGYTFTGYYMHWVRQAPGQGLEWMGWINPKSGDTNYAQKFQGRVTLTRDTSTSTAYMELSRLRSDDTAVYYCARRLDVWGQGTTVTVSS
VL: QSVLTQPPSVSAAPGQKVTISCSGSSSNIGNNYVSWYQQLPGTAPKLLIYDNNKRPSGIPDRFSGSKSGTSATLGITGLQTGDEADYYCGTWNSSLSAGYVFGTGTKVTV
As to B1, the percent of cells shifted amounted to 5%.

Source of the values: patent publication US20080057063A1.
